Substitutions are numbered along the chain they refer to.
Key:
Experiment in all cases: EMSA; EMSA: PBS pH 7.4 (or KH2PO4/10 mM MgCl2 pH 6.0), 3.6 or 5 uM protein, 25 uM nt DNA, 37 C 15 min per strand, 0.8% agarose 1x TBE; cryo-EM: 20 mM KH2PO4 (Results: 10 mM), 10 mM MgCl2 pH 6.0, 37 C; native MS: 100 mM ammonium acetate pH 7, 37 C
Settings in all cases: protein: recombinant, tags: N-terminal 6His vector tag (20 aa) retained, chain copies: 10
[1] = biological target: T1, LiRecT K180A (Listeria innocua CLIP 11262, UniProt Q92FL9 1-271, K180A)
T1 sequence: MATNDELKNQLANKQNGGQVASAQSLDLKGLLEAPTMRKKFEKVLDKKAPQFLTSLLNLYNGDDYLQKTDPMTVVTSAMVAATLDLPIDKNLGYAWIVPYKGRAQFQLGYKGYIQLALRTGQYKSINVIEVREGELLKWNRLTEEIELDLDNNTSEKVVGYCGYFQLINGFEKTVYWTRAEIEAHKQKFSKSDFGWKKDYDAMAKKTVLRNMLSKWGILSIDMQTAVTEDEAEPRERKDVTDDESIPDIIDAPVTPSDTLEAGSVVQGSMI

[2] = biological target: T2, LiRecT Q107H (Listeria innocua CLIP 11262, UniProt Q92FL9 1-271, Q107H)
T2 sequence: T1 sequence with Q107H, A180K

[3] = biological target: T3, LiRecT Y100A (Listeria innocua CLIP 11262, UniProt Q92FL9 1-271, Y100A)
T3 sequence: T1 sequence with Y100A, A180K

[4] = biological target: T4, LiRecT V98W (Listeria innocua CLIP 11262, UniProt Q92FL9 1-271, V98W)
T4 sequence: T1 sequence with V98W, A180K

[5] = biological target: T5, LiRecT K157A (Listeria innocua CLIP 11262, UniProt Q92FL9 1-271, K157A)
T5 sequence: T1 sequence with K157A, A180K

[6] = label: 5'-Cy3;5'-Cy5, 49 bp, 1 nt 5' overhang at each end

Measured: binding result

GCGGATGGCTTAGAGCAGAATCGCCCTGCATAGCTCGATTTTTGCGGATG (ssDNA) [Cy3-50mer]
binds: [1]; label: 5'-Cy3, single strand | [2]; label: 5'-Cy3, single strand | [3]; label: 5'-Cy3, single strand | [4]; label: 5'-Cy3, single strand | [5]; label: 5'-Cy3, single strand

CCATCCGCAAAAATCGAGCTATGCAGGGCGATTCTGCTCTAAGCCATCCG (ssDNA) [Cy5-50mer]
binds: [1]; label: 5'-Cy5, single strand | [2]; label: 5'-Cy5, single strand | [3]; label: 5'-Cy5, single strand | [4]; label: 5'-Cy5, single strand | [5]; label: 5'-Cy5, single strand

B1: 50-mer duplex intermediate (sequential addition) (dsDNA)
DNA 1: GCGGATGGCTTAGAGCAGAATCGCCCTGCATAGCTCGATTTTTGCGGATG
DNA 2: CCATCCGCAAAAATCGAGCTATGCAGGGCGATTCTGCTCTAAGCCATCCG
binds: [1]; [6] | [2]; [6] | [3]; [6] | [4]; [6] | [5]; [6]
